From PMC7881117 (Nature Communications, 2021)

Biological target: T1, full-length p53 (UniProt P04637 1-393)
T1 construct: A fluorescein-labelled form was used in the ubiquitination assay only
Experiment: SPR; p53 binding domain of MDM2 immobilised on a CM5 chip by amine coupling; full-length p53 at 0.125 to 2 μM flowed over; BIAcore 3000
Conditions: both partners purified

T1 sequence (P04637 whole entry): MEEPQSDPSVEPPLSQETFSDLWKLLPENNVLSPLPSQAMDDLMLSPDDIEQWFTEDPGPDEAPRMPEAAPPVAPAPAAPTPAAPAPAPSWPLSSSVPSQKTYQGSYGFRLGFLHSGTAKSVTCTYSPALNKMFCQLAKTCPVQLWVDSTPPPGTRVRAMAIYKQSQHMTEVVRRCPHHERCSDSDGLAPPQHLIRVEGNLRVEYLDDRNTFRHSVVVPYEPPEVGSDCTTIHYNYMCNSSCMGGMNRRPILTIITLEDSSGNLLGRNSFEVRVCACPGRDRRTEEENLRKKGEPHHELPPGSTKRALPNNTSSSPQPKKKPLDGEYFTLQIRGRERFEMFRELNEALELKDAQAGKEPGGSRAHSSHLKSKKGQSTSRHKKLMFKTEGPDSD

- Kd: 600 ± 100 nM
B1: MDM2 p53 binding domain (domain or fragment)
chain: TLVRPKPLLLKLLKSVGAQKDTYTMKEVLFYLGQYIMTKRLYDEKQQHIVYCSNDLLGDLFGVPSFSVKEHRKIYTMIYRNLVV
